Measured values reported in US20240026407A1, “MODIFICATION OF SAPONINS” (GLAXOSMITHKLINE BIOLOGICALS SA, priority 2020, published 2024).

B1: 208 (protein, listed as Anaerolinea thermophila)
chain: MNVHNQDTIEQKISELLSQMTLSEKVSLLSGKDAWRTMPIPRLGIPSITMTDGPHGVRSSYPEAGRKAGPTTCFPTGVSMAATWNTALIEKVGMALAEETRAMDCDILLGPCVNIVRHPLAGRNFESYSEDPYLNGKMGVAWVKGLQSKKVGASLKHFAANNQEFERHRGSSELDERTLREIYLPHFEMVVKEAKPFTVMCAYNRINGVYASQNRHLLREILKEEWGFDGVVVSDWGANHTIFESVENGLDLEMPGPARYYGKLLEDAVHNWQIDEKVIDDAVRRILRILFRAGKFDDPATLPPGSVNTPEHQALALEVAEEAITLLKNEADLLPLDIEKIRTLAVIGPNAAEDRIGGGGSSYVDPPYRVSPLEALRARFGDKIQIEYEKGCDNYHQPPVLGADWLGVNGLKVDFFDNPALQGQPAGTISIPKAEMWMWANSLPASKITSPRFSLRASGSFTPLESGNFTFFLVNTSTCRVFINGNKVFENTSKPKEHRAESEVQFQTTLEEGKSYDLVIEYLKDNDEEFAFWKLACMRVFGPGEDNRIQKAAELAAKSDVALVFIGMPEGFESEGYDRPDMRLPGPQDELVRAVLKANPRTVVILNAGSPVEMPWAEDVPAILEAYYPGQEGGNAVAKILFGEINPSGKLTVTFPRRLEDTPAYINYPGDRKVYYGEGIFVGYRYYEKKKVSPLFPFGHGLSYTTFEYENLTLPSEVNIGESVKVQVTVKNTGKRAGKEVVQLYVGDPESSLVRPPKELKGFAKVELQPGESKTVSFELDERAFAFYDPYQSRWVVEPGEFQILVGSSSQDIRASAVLRMA
B2: 250 (protein, listed as Modestobacter marinus)
chain: MTATTPSDPTALPLEQKVRLLSGQDFWSTPAVAEAGLSSVVLTDGPHGVRRQQGEFDQIGLLESVPATCFPPAVAVGSSWDPEVAERIGAAVGVEARAIGVPVVLGPGVNIKRSPLCGRNFEYYSEDPLLAGVLGAAHVRGQQGEGVGASVKHFAANNQETQRMQVSADVDERTLREVYLPAFERVVTESRPATVMCAYNKVNGVYASQHRWLLTEVLREEWGFRGAVVSDWGAVDDRVAALEAGLDLQMPGDSGAGNALVVEAVRAGVLDEAVVDRSVRRVAALAGLVAEPTAGFDVEAHHALARELAAGCAVLLKNDGGTLPLTAGTRITVVGEFARTPRFQGGGSSHVNATRVDDALTALQGAVEVTFAPGFTLDGSGDAAALREEAVAAARGAEVTVVFAGLAEADESEGFDRTTLDLPAGQVDLIRAVAAVSLRTVVVLSSGSVVSLEGWHDDVDAVLAGFLLGQAGGGALADLLTGAVDPSGRLAETIPLRLQDTPSYLTFPGEQGHARYGEGVMVGYRHYETAEQPVRYPFGHGLSYTSFATTDLQVRTRGADGATATVTVTNTGERAGRHVVQVYVATAAGPVRRPARELRAFTKVSLAAGESATVAFELDRRAFAYWDVREHDWVVAPGEYSVQIGASAADVLDQRTVTLAGDDLVPELTLQSSVAEWFAHPVAGPQLLAGFVAAMPDGAAEMHEGMLQMIGSMPMRRFAADFGSAVPAAELDRLMAAARAAR

How the values were obtained:
Format in all cases: biochemical, Quillaja saponaria
[1] = Experiment 4-2: screening of glucosidases for deglycosylation with purified QS-18 (1 mg/ml) at pH 6 and 30 deg C; conditions: pH 6, 30 degC, 18 hrs, clarified lysate, LCMS/MS
In short: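 Clarified lysates of glucosidase-expressing cells in 100 mM potassium phosphate pH 6 were incubated 18 h at 30 °C with QS-18 at 1 mg/ml final. Reactions quenched with MeCN; deglycosylation activity determined by LC-MS/MS.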

[2] = Experiment 4-4: screening of glucosidases for deglycosylation of QS-18 in crude bark extract (1 in 20 dilution) to QS-21; conditions: CBE 1 in 20 dilution, pH 6, 25 degC, 18 hours; % conversion of Middle Peak by UV HPLC
In short: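 Clarified glucosidase lysates were incubated with pH 6 crude bark extract (1 in 20) in potassium phosphate buffer pH 6 for 18 h at 25 °C with shaking, then quenched with MeCN. UV HPLC with MS/MS-supported peak identity; activity is % conversion of the extract's Middle Peak (QS-18 family) toward the QS-21 peak.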

[3] = Experiment 4-3: screening of glucosidases for deglycosylation with QS-18 in crude bark extract (1 in 2000 dilution) at pH 7 and 30 deg C; conditions: CBE 1 in 2000 dilution, pH 7, 30 degC, 1 h; % conversion of QS-18 by LCMS/MS
[4] = Experiment 4-1: screening of glucosidases for deglycosylation with purified QS-18 (0.04 mg/ml) at pH 7.5 and room temperature; conditions: pH 7.5, room temperature, 20 h, clarified E. coli lysate, QS-18 2150 to QS-21 1988 by LCMS/MS
In short: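 Candidate glucosidases expressed in E. coli BL21(DE3) (pET24b+, autoinduction, 20 °C for 20 h); clarified lysates in 100 mM potassium phosphate pH 7.5 incubated with QS-18 (0.04 mg/ml final) 20 h at room temperature. Quenched with MeCN, analysed by LC-MS/MS for % conversion; hits >3 S.D. above negative control.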

Row | Molecule | Expt 4-2 % conv [1] | Expt 4-4 % conv [2] | Expt 4-3 % conv [3] | Expt 4-1 % conv [4]
1 | B1 | 94.0% | <3% | 26.0% | 100.0%
2 | B2 | 36.0% | <3% | 2.6% | 88.5%
